Laboratory results as given in patent US20120142585A1 (TEMPLE UNIVERSITY OF THE C0MMONWEALTH SYSTEM OF HIGHER …, published 2012).
Where no end group is shown, it is not given here. [ ]: non-standard residue; d: D form. NMeR = CN[C@@H](CCCNC(=N)N)C(=O)O; aThr = C[C@H](O)[C@H](N)C(=O)O; Nva = CCC[C@H](N)C(=O)O; Ahx = NCCCCCC(=O)O; βAla = NCCC(=O)O

Legend:
[1] = biological target: T1, leptin receptor (ObR) naturally expressed on MCF-7, LN229 and LN18 cells (human); assay: cell-based or functional assay
[2] = biological target: T1, leptin receptor (ObR) naturally …; assay: cell-based or functional assay; remark: listed apart in the source

Binder	EC50, proliferation of ObR-positive cancer cells in the absence of leptin [1] [nM]	IC50, proliferation of ObR-positive cancer cells in the presence of leptin (6 nM) [1] [nM]	IC100, proliferation of ObR-positive cancer cells in the presence of leptin (6 nM) [1] [nM]	IC50, proliferation and XTT metabolic activity assays, LN229 and MCF-7 cells with leptin [2] [nM]
E[Nva]VALSR[Ahx]-NH2 (N-terminus assumed; SMILES CCC[C@H](NC(=O)[C@@H](N)CCC(=O)O)C(=O)N[C@H](C(=O)N[C@@H](C)C(=O)N[C@@H](CC(C)C)C(=O)N[C@@H](CO)C(=O)N[C@@H](CCCNC(=N)N)C(=O)NCCCCCC(N)=O)C(C)C) [peptide of amino acid sequence Glu-Nva-Val-Ala-Leu-Ser-Arg-AcpNH2 [SEQ ID NO:51]]	> 500	50	100	
TE[Nva][Nva]ALSR[Nva]-NH2 (N-terminus assumed; SMILES CCC[C@H](NC(=O)[C@H](CCCNC(=N)N)NC(=O)[C@H](CO)NC(=O)[C@H](CC(C)C)NC(=O)[C@H](C)NC(=O)[C@H](CCC)NC(=O)[C@H](CCC)NC(=O)[C@H](CCC(=O)O)NC(=O)[C@@H](N)[C@@H](C)O)C(N)=O) [peptide of amino acid sequence Thr-Glu-Nva-Nva-Ala-Leu-Ser-Arg-NvaNH2 [SEQ ID NO:47]]	> 1000	1000		
[aThr]E[Nva]VALSR[Ahx]-NH2 (N-terminus assumed; SMILES CCC[C@H](NC(=O)[C@H](CCC(=O)O)NC(=O)[C@@H](N)[C@H](C)O)C(=O)N[C@H](C(=O)N[C@@H](C)C(=O)N[C@@H](CC(C)C)C(=O)N[C@@H](CO)C(=O)N[C@@H](CCCNC(=N)N)C(=O)NCCCCCC(N)=O)C(C)C) [peptide of amino acid sequence alloThr-Glu-Nva-Val-Ala-Leu-Ser-Arg-AcpNH2 [SEQ ID NO:49]]	> 1000	0.2	5	
[dS]E[Nva]VALS[NMeR][βAla]-NH2 [peptide of amino acid sequence (D)-Ser-Glu-Nva-Val-Ala-Leu-Ser-N-MeArg-bAlaNH2 [SEQ ID NO:6]]	> 1000	0.2	< 1	
TE[Nva]VALSR[Ahx]-NH2 (N-terminus assumed; SMILES CCC[C@H](NC(=O)[C@H](CCC(=O)O)NC(=O)[C@@H](N)[C@@H](C)O)C(=O)N[C@H](C(=O)N[C@@H](C)C(=O)N[C@@H](CC(C)C)C(=O)N[C@@H](CO)C(=O)N[C@@H](CCCNC(=N)N)C(=O)NCCCCCC(N)=O)C(C)C) [peptide of amino acid sequence Thr-Glu-Nva-Val-Ala-Leu-Ser-Arg-AcpNH2 [SEQ ID NO:4]]	> 1000	5	50	2 to 3
